B1: ipilimumab (antibody, human IgG1, kappa, V domains shown)
VH: QVQLVESGGGVVQPGRSLRLSCAASGFTFSSYTMHWVRQAPGKGLEWVTFISYDGNNKYYADSVKGRFTISRDNSKNTLYLQMNSLRAEDTAIYYCARTGWLGPFDYWGQGTLVTVSS
VL: not shown
B2: non-fucosylated ipilimumab (antibody, human IgG1, kappa, V domains shown)
VH: B1 VH
VL: not shown
modifications: non-fucosylated (no fucose on the Asn297-linked oligosaccharide)

Molecular target: CTLA4 CD3 zeta on the 58 α-β-CTLA4 CD3 zeta expressing cell line (human)
Assay: cell-based or functional assay

Chain of CTLA4 CD3 zeta on the 58 α-β-CTLA4 CD3 zeta expressing cell line (human) (P16410 36-161): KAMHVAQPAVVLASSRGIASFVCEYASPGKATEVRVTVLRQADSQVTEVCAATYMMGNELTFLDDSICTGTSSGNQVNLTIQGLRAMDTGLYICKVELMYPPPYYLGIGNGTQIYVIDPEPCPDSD

| Binder | EC50 of NK92 cell-mediated specific lysis (calcein release) of 58 α-β-CTLA4 CD3 zeta cells |
| --- | --- |
| B1 | 0.13 ng/mL |
| B2 | 0.0056 ng/mL |

Source: US10196445 (Bristol-Myers Squibb, dated 2019)
